# From US9068994
# Key:
# [1] = target: Chorionic Gonadotropin (CG) (UniProt P01215); experiment: FRET quenching titration, BHQ-10 antibody with Alexa Fluor 488 antigen, in solution
# [2] = target: Follicle Stimulating Hormone (FSH) (UniProt P01215); experiment: as above
# Luteinizing Hormone (LH) [3] = target: Luteinizing Hormone (LH) (UniProt P01215); experiment: as above
# [4] = target: Thyroid Stimulating Hormone (TSH) (UniProt P01215); experiment: as above
# [5] = target: Chorionic Gonadotropin (CG) (UniProt P01215); experiment: i-STAT sandwich cartridge, 0.4 mIU/L TSH plus CG; row Ab capture; detection Ab: 5409
# Luteinizing Hormone (LH) [6] = target: Luteinizing Hormone (LH) (UniProt P01215); experiment: i-STAT sandwich cartridge, 0.4 mIU/L TSH plus LH; row Ab capture; detection Ab: 5409
# [7] = target: Follicle Stimulating Hormone (FSH) (UniProt P01215); experiment: i-STAT sandwich cartridge, 0.4 mIU/L TSH plus FSH; row Ab capture; detection Ab: 5409
# [8] = target: Thyroid Stimulating Hormone (TSH) (UniProt P01215); experiment: i-STAT sandwich cartridge with TSH; row Ab on capture beads; detection conjugate: M4-ALP
# [9] = target: Thyroid Stimulating Hormone (TSH) (UniProt P01215); experiment: FRET competition, unlabelled Ab pre-bound to Alexa488 antigen; competitor: BHQ-labelled M4
# [10] = target: Thyroid Stimulating Hormone (TSH) (UniProt P01215); experiment: i-STAT sandwich cartridge with TSH; row Ab on capture beads; detection conjugate: 5409-ALP
# [11] = target: Thyroid Stimulating Hormone (TSH) (UniProt P01215); experiment: i-STAT sandwich cartridge with TSH; row Ab on capture beads; detection conjugate: T25C-ALP
# [12] = target: Thyroid Stimulating Hormone (TSH) (UniProt P01215); experiment: FRET competition, unlabelled Ab pre-bound to Alexa488 antigen; competitor: BHQ-labelled 414B
# [13] = target: Thyroid Stimulating Hormone (TSH) (UniProt P01215); experiment: FRET competition, unlabelled Ab pre-bound to Alexa488 antigen; competitor: BHQ-labelled 5409
# [14] = target: Thyroid Stimulating Hormone (TSH) (UniProt P01215); experiment: FRET competition, unlabelled Ab pre-bound to Alexa488 antigen; competitor: BHQ-labelled T25C
# [15] = target: Thyroid Stimulating Hormone (TSH) (UniProt P01215); experiment: FRET competition, unlabelled Ab pre-bound to Alexa488 antigen; competitor: BHQ-labelled ME130
# [16] = target: Thyroid Stimulating Hormone (TSH) (UniProt P01215); experiment: i-STAT sandwich cartridge with TSH; row Ab on capture beads; detection conjugate: TSH Ab 544-ALP
# [17] = target: Thyroid Stimulating Hormone (TSH) (UniProt P01215); experiment: FRET competition, unlabelled Ab pre-bound to Alexa488 antigen; competitor: BHQ-labelled TSH Ab 544
# [18] = target: Chorionic Gonadotropin (CG) (UniProt P01215); experiment: i-STAT sandwich cartridge, 0.4 mIU/L TSH plus CG; row Ab capture; detection Ab: T25C
# Luteinizing Hormone (LH) [19] = target: Luteinizing Hormone (LH) (UniProt P01215); experiment: i-STAT sandwich cartridge, 0.4 mIU/L TSH plus LH; row Ab capture; detection Ab: T25C
# [20] = target: Chorionic Gonadotropin (CG) (UniProt P01215); experiment: i-STAT sandwich cartridge, 0.4 mIU/L TSH plus CG; row Ab capture; detection Ab: ME130
# [21] = target: Follicle Stimulating Hormone (FSH) (UniProt P01215); experiment: i-STAT sandwich cartridge, 0.4 mIU/L TSH plus FSH; row Ab capture; detection Ab: T25C
# Luteinizing Hormone (LH) [22] = target: Luteinizing Hormone (LH) (UniProt P01215); experiment: i-STAT sandwich cartridge, 0.4 mIU/L TSH plus LH; row Ab capture; detection Ab: ME130
# [23] = target: Follicle Stimulating Hormone (FSH) (UniProt P01215); experiment: i-STAT sandwich cartridge, 0.4 mIU/L TSH plus FSH; row Ab capture; detection Ab: ME130
# [24] = target: Thyroid Stimulating Hormone (TSH) (UniProt P01215); experiment: i-STAT sandwich cartridge with TSH; row Ab on capture beads; detection conjugate: ME130-ALP
# Luteinizing Hormone (LH) [25] = target: Luteinizing Hormone (LH) (UniProt P01215); experiment: LH-detecting i-STAT cartridge (LH capture, 414B detection), polystyrene LH 5304 scavenger beads added
# [26] = target: Thyroid Stimulating Hormone (TSH) (UniProt P01215); experiment: i-STAT sandwich cartridge with TSH; row Ab on capture beads; detection conjugate: 414B-ALP
# [27] = target: Chorionic Gonadotropin (CG) (UniProt P01215); experiment: i-STAT sandwich cartridge, 0.4 mIU/L TSH plus CG; row Ab capture; detection Ab: TSH Ab 544
# Luteinizing Hormone (LH) [28] = target: Luteinizing Hormone (LH) (UniProt P01215); experiment: i-STAT sandwich cartridge, 0.4 mIU/L TSH plus LH; row Ab capture; detection Ab: TSH Ab 544
# [29] = target: Follicle Stimulating Hormone (FSH) (UniProt P01215); experiment: i-STAT sandwich cartridge, 0.4 mIU/L TSH plus FSH; row Ab capture; detection Ab: TSH Ab 544
# [30] = target: Chorionic Gonadotropin (CG) (UniProt P01215); experiment: i-STAT sandwich cartridge, 0.4 mIU/L TSH plus CG; row Ab capture; detection Ab: 414B
# Luteinizing Hormone (LH) [31] = target: Luteinizing Hormone (LH) (UniProt P01215); experiment: i-STAT sandwich cartridge, 0.4 mIU/L TSH plus LH; row Ab capture; detection Ab: 414B
# [32] = target: Follicle Stimulating Hormone (FSH) (UniProt P01215); experiment: i-STAT sandwich cartridge, 0.4 mIU/L TSH plus FSH; row Ab capture; detection Ab: 414B
Kd [1] [nM],Kd [2] [nM],Kd (Luteinizing Hormone (LH) [3]) [nM],Kd [4] [nM],CG CR (%) (cross reactivity) [5],LH CR (%) (cross reactivity) (Luteinizing Hormone (LH) [6]),FSH CR (%) (cross reactivity) [7],electrochemical current (sandwich signal) [8] [nA],relative fluorescence (relative (same pair = 1.0)) [9],electrochemical current (sandwich signal) [10] [nA],electrochemical current (sandwich signal) [11] [nA],relative fluorescence (relative (same pair = 1.0)) [12],relative fluorescence (relative (same pair = 1.0)) [13],relative fluorescence (relative (same pair = 1.0)) [14],relative fluorescence (relative (same pair = 1.0)) [15],electrochemical current (sandwich signal) [16] [nA],relative fluorescence (relative (same pair = 1.0)) [17],electrochemical current (sandwich signal) [24] [nA],Substance,also measured
45,70,54,0.04,11.8,11.1,3.9,50.5,0.77,54.7,0.1,0.99,0.82,0.88,1,10.8,0.82,,AbCam ME-130 (ab9390) TSH mouse monoclonal antibody,
500,1000,1000,0.1,,,,15.2,0.9,,34.6,0.88,1,0.78,0.78,1.41,0.93,53.6,Biospacific Cat#5409 SPTNE-5 TSH mouse monoclonal antibody,CG CR (%) (cross reactivity) [18]: 0.96%; LH CR (%) (cross reactivity) (Luteinizing Hormone (LH) [19]): 3.76%; CG CR (%) (cross reactivity) [20]: 0.78%; FSH CR (%) (cross reactivity) [21]: 0.65%; LH CR (%) (cross reactivity) (Luteinizing Hormone (LH) [22]): 10.1%; FSH CR (%) (cross reactivity) [23]: 2.43%
,,,,,,,,,,,,,,,,,,"Biospacific LH 5304 monoclonal antibody (mus beta-LH, Catalog #5304 SP-5)",signal left after scavenger beads (% of signal without beads) (Luteinizing Hormone (LH) [25]): 4%
554,210,300,0.18,,,,,1,20.7,22.5,0.9,0.94,0.74,0.76,0,0.98,39.9,"Fitzgerald 10C-CR2151M4 TSH mouse monoclonal antibody, clone 157155",
40,300,35,0.08,13.7,9.89,6.25,40.9,0.92,49.7,,0.97,0.95,1,0.97,0.83,0.97,0.68,"Fitzgerald Cat#10-T25C TSH mouse monoclonal antibody, clone M94206",electrochemical current (sandwich signal) [26]: 0.82 nA
0.05,0.1,0.05,0.04,84.6,348,260,41.3,0.75,40.3,,1,0.81,0.76,0.86,10.2,0.83,,"Seradyn anti-alpha-LH monoclonal antibody Cat#MIT0414B, clone BB3.1.3",CG CR (%) (cross reactivity) [27]: 39.2%; LH CR (%) (cross reactivity) (Luteinizing Hormone (LH) [28]): 467%; FSH CR (%) (cross reactivity) [29]: 219%
210,1000,1000,1.31,,,,0.11,0.92,7.98,22.4,0.89,0.96,0.71,0.72,,1,34.9,TSH Ab 544 (Abbott Diagnostics Division) (antibody),CG CR (%) (cross reactivity) [30]: 117%; LH CR (%) (cross reactivity) (Luteinizing Hormone (LH) [31]): 11.8%; FSH CR (%) (cross reactivity) [32]: 7.15%; electrochemical current (sandwich signal) [26]: 25 nA
